From the supplement of paper PMC7877785
± gives the uncertainty stated by the source.

Assay: self-splicing fitness, log relative to wild type (ln ratio); higher = more splicing; Tetrahymena group I intron in knt gene, E. coli kanamycin selection, DiMSum; sequences stand for … in CUCUCU…GGAGGGAAAAGUUAUCAGGCAUGCACCUGGUAGCUAGUCUUUAAACCAAUAGAUUGCAUCGGUUUAAAAGGCAAGACCGUCAAAUUGCGGGAAAGGGGUCAACAGCCGUUCAGUACCAAGUCUCAGGGGAAACUUUGAGAUGGCCUUGCAAAGGGUAUGGUAAUAAGCUGACGGACAUGGUCCUAACCACGCAGCCAAGUCCUAAGUCAACAGAUCUUCUGUUGAUAUGGAUGCAGUUCACAGACUAAAUGUCGGUCGGGGAAGAUGUAUUCUUCUCAUAAGAUAUAGUCGGACCUCUCCUUAAUGGGAGCUAGCGGAUGAAGUGAUGCAACACUGGAGCCGCUGGGAACUAAUUUGUAUGCGAAAGUAUAUUGAUUAGUUUUGGAGUACUCGUGGUCG
How it was run: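 The eight P1ex-region nucleotides of an intron in the knt kanamycin-resistance gene on pET-22b(+) were all randomised and the library put into E. coli BL21(DE3). Six replicate transformations were grown overnight at 37°C or 30°C on LB agar with or without 25 μg/mL kanamycin, together with 100 μg/mL carbenicillin, 50 μM IPTG and 0.2% rhamnose. Colonies were pooled and amplicon-sequenced on an Illumina HiSeq 2500. Fitness from DiMSum is the error-weighted combination of wild-type-normalised replicate fold changes, kanamycin over none.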

Row | Sequence | self-splicing fitness (ln) (30 °C) | self-splicing fitness (ln) (37 °C)
1 | GUCCAGCAAUAUUACGUGGC | -3.97 ± 0.24 | -3.46 ± 0.39
2 | CACAAGCAAUAUUACGACCC | -2.15 ± 0.4 | -0.814 ± 0.24
3 | UUCUAGCAAUAUUACGUCUC | -3.85 ± 0.37 | -2.23 ± 0.25
4 | GGUAAGCAAUAUUACGCAUU | -1.86 ± 0.14 | -0.797 ± 0.12
5 | CACCAGCAAUAUUACGUCUC | -2.89 ± 0.13 | -2.38 ± 0.21
6 | AGGAAGCAAUAUUACGGCUC | -1.07 ± 0.14 | -0.713 ± 0.19
7 | GGCUAGCAAUAUUACGGUCU | -2.92 ± 0.44 | -0.649 ± 0.21
8 | AUUGAGCAAUAUUACGGAGU | -3.76 ± 0.15 | -1.86 ± 0.1
9 | CCGUAGCAAUAUUACGAAGA | -3.8 ± 0.35 | -2.08 ± 0.24
10 | UUUUAGCAAUAUUACGUGGU | -3.72 ± 0.35 | -3.24 ± 0.42
11 | ACACAGCAAUAUUACGGUAA | -3.67 ± 0.21 | -1.18 ± 0.1
12 | CGGAAGCAAUAUUACGGGGU | -2.39 ± 0.27 | -3.41 ± 0.43
13 | GCGCAGCAAUAUUACGUCCA | -1.63 ± 0.12 | -0.0959 ± 0.18
14 | CCGCAGCAAUAUUACGGCAG | -1.4 ± 0.081 | 0.0999 ± 0.098
15 | AAACAGCAAUAUUACGACGA | -1.32 ± 0.096 | 0.0122 ± 0.099
16 | GUAAAGCAAUAUUACGGAUG | -2.97 ± 0.24 | -0.613 ± 0.19
17 | AUUUAGCAAUAUUACGUAGG | -2.98 ± 0.14 | -2.02 ± 0.16
18 | GUACAGCAAUAUUACGGCAU | -0.301 ± 0.081 | -0.278 ± 0.11
19 | AAGGAGCAAUAUUACGGAGA | -3.62 ± 0.31 | -2.35 ± 0.27

Row | Sequence | self-splicing fitness (ln) (30 °C) | self-splicing fitness (ln) (37 °C)
20 | UACAAGCAAUAUUACGAAAU | -2.52 ± 0.16 | -3.01 ± 0.29
21 | AAAUAGCAAUAUUACGCUAC | – | -1.68 ± 0.3
22 | GUUAAGCAAUAUUACGUAGU | -2.06 ± 0.16 | -0.895 ± 0.14
23 | CCGUAGCAAUAUUACGACGG | – | -0.894 ± 0.28
24 | AGCGAGCAAUAUUACGGCUG | -1.47 ± 0.12 | -0.625 ± 0.15
25 | CGCCAGCAAUAUUACGGAGG | -3.32 ± 0.18 | -0.355 ± 0.12
26 | CCGCAGCAAUAUUACGUGAG | -0.587 ± 0.038 | -0.367 ± 0.051
27 | UCCUAGCAAUAUUACGGGCU | -2.12 ± 0.1 | -1.74 ± 0.13
28 | CGUUAGCAAUAUUACGUCAA | – | -1.41 ± 0.38
29 | GGCAAGCAAUAUUACGUUGA | -0.666 ± 0.066 | -0.307 ± 0.092
30 | CACGAGCAAUAUUACGCAUG | -3.6 ± 0.11 | -2.74 ± 0.15
31 | AGCCAGCAAUAUUACGGGCG | -2.66 ± 0.1 | -0.918 ± 0.1
32 | CCGCAGCAAUAUUACGGAUG | -1.99 ± 0.12 | -1.54 ± 0.13
33 | GACGAGCAAUAUUACGGCAG | -2.04 ± 0.25 | -2.51 ± 0.38
34 | UCUAAGCAAUAUUACGAAGG | -2.53 ± 0.15 | -0.99 ± 0.16
35 | GGAUAGCAAUAUUACGACUG | -0.737 ± 0.15 | -1.08 ± 0.19
36 | AGAUAGCAAUAUUACGGUCA | -0.325 ± 0.08 | 0.317 ± 0.11
37 | AGAGAGCAAUAUUACGGUAA | -2.95 ± 0.31 | -2.28 ± 0.33
38 | UGAGAGCAAUAUUACGUCCA | -1.04 ± 0.14 | -0.218 ± 0.17
